The target in test [1] is T1, amphyphisin SH3 (AMPH_HUMAN), P49418.
T1 chain: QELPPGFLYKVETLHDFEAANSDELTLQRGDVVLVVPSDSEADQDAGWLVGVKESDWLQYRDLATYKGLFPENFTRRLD
Briefly: SPOT array.

For test [2], the target named is endophilin SH3 (SH3G2_HUMAN), Q99962. The test is described as follows: SPOT array.

Here are results for 38 molecules from article PMC314469, “Protein Interaction Networks by Proteome Peptide Scanning” (PLoS Biology, 2004).

Regarding TKALLKRPLREIQM [Q9UBI4 175-188], the normalised SPOT signal, Boehringer light units (BLU); mean over the file's lines of this peptide in test [1] is 866; in test [2] it was 170.
The matching figures for TLKRPKRPPLKEFF [Q96NX2 23-37]: 2720 and 15000.
The matching figures for TNFPPPRPPPPSRP [AAH28697 239-253]: 1610 and 11200.
In the same order, the values of SEHNPKRPVTSEQG [O75598 106-119] are 33.3 and 19.4.
For TKTPPPRPPLPTQQ [Q9NSG0 388-402], the figures for the normalised SPOT signal, Boehringer light units (BLU); mean over the file's lines of this peptide in test [1] and in test [2] were 708 and 13500, respectively.
The matching figures for TILLPKRPPKTTED [Q9BT43 129-143]: 282 and 916.
The matching figures for TMSSIYRPLKPRTN [Q9H296 344-357]: 97.2 and 120.
The matching figures for TLVWPHRPARPRPV [Q9BXL6 817-830]: 613 and 2240.
Turning to TNFAFRRPSFESLK [P43652 501-514], the normalised SPOT signal, Boehringer light units (BLU); mean over the file's lines of this peptide stood at 45.2 in test [1] and 414 in test [2].
In the case of TLLSPPRPGRLPDL [O95206 1031-1044], the normalised SPOT signal, Boehringer light units (BLU); mean over the file's lines of this peptide was found to be 443 in test [1] and 192 in test [2].
The matching figures for TLKRPKRPPLREFF [Q9Y2E4 59-73]: 3950 and 24900.
The matching figures for TNPELRRPRSEPSN [Q9Y6Y1 1215-1228]: 34.7 and 41.2.
As for TIPKPPKPPDKPLM [O43539 57-71], the figures for the normalised SPOT signal, Boehringer light units (BLU); mean over the file's lines of this peptide in test [1] and in test [2] were 59.5 and 1750, respectively.
In the same order, the values of TGGGPGRPPDWTPH [Q9BZS0 2280-2294] are 43.3 and 668.
In the same order, the values of SEGTLERPQRSRGR [Q9NQX6 85-98] are 930 and 125.
Turning to TLLGPGRPYRAIDF [P40126 196-209], the normalised SPOT signal, Boehringer light units (BLU); mean over the file's lines of this peptide was found to be 184 in test [1] and 488 in test [2].
For TELLPRRPPSSSSS [Q9BZL6 226-240], the normalised SPOT signal, Boehringer light units (BLU); mean over the file's lines of this peptide amounted to 118 in test [1] and 339 in test [2].
In the same order, the values of TKIPFKRPRGHNFS [Q9HAS2 64-77] are 53.7 and 22.1.
In the same order, the values of TLLALQRPQRLHHH [Q9NYK9 18-31] are 3250 and 877.
As to TLLFPKRPFSWIRH [Q969I6 440-453], the figures for the normalised SPOT signal, Boehringer light units (BLU); mean over the file's lines of this peptide in test [1] and in test [2] were 123 and 1590, respectively.
In the same order, the values of THLLIKRPPFFHYR [Q9HAM8 259-272] are 33.8 and 2020.
The matching figures for TKIMFNRPKKKNAI [O75521 116-129]: 80.4 and 112.
The matching figures for TELLPKRPQHLPGH [P54098 556-569]: 34.4 and 21.9.
For the molecule TEGRLRRPQQQQER [Q96PE2 193-206], the normalised SPOT signal, Boehringer light units (BLU); mean over the file's lines of this peptide in test [1] was determined as 30; in test [2], 0.
In the same order, the values of TKDSPGKPPMAPPS [BAC03441 170-184] are 90.4 and 80.7.
As for TDNKFRRPWTRVSA [Q96M73 46-59], the normalised SPOT signal, Boehringer light units (BLU); mean over the file's lines of this peptide was determined as 40.3 in test [1] and 20.5 in test [2].
The matching figures for TIPPFERPFKDHQV [O94847 104-117]: 0 and 127.
Regarding TNAGIRRPEKPPYS [Q12946 14-27], the normalised SPOT signal, Boehringer light units (BLU); mean over the file's lines of this peptide in test [1] is 70.3; in test [2], 113.
In the case of TLLEPRRPRSESVT [Q9UPN7 147-160], the values for the normalised SPOT signal, Boehringer light units (BLU); mean over the file's lines of this peptide in test [1] and in test [2] were 29.7 and 113, respectively.
The matching figures for TLQAPRRPPTPGPD [Q9H6K5 343-356]: 35.3 and 1890.
In the same order, the values of SEGSLTRPKKAIPA [Q13329 90-103] are 76.6 and 128.
Take TEVDIKRPSRGQTS [Q96T37 401-414]: the normalised SPOT signal, Boehringer light units (BLU); mean over the file's lines of this peptide is 656 in test [1] and 77.7 in test [2].
In the same order, the values of TEEELRRPEMKNFF [Q9Y373 238-251] are 34.2 and 28.7.
The matching figures for TFGIPLRPNRGRGG [Q9UFR3 88-101]: 8170 and 583.
Regarding TEDTPRRPPEPKPI [Q9UKN7 2430-2443], the normalised SPOT signal, Boehringer light units (BLU); mean over the file's lines of this peptide in test [1] and in test [2] was 16.8 in each case.
With THSIIKRPDNQHVI [Q02817 4993-5006], the normalised SPOT signal, Boehringer light units (BLU); mean over the file's lines of this peptide in test [1] was determined as 38.6; in test [2], 56.3.
The matching figures for TEGIPPKPPPRLVW [Q9UBY0 781-795]: 2770 and 1260.
TENAPSRPLRRRRK [Q9ULR8 121-134]: the normalised SPOT signal, Boehringer light units (BLU); mean over the file's lines of this peptide was found to be 18800 in test [1] and 1650 in test [2].
